{"source": "paper PMC11271964", "about": "“Design and characterization of hyperactive mutants of the Agrobacterium tumefaciens telomere resolvase, TelA”", "molecules": {"B1": {"name": "rTel (OGCB951F/OGCB952) (dsDNA)", "DNA 1": "AACTCTAACCATTGCGCGATCGATCATAATAACAATATCATGATATTGTTATTGTAATCGATCGCGGATCCCGGGCGTAGCCACGTAGGT", "DNA 2": "GAACCTACGTGGCTACGCCCGGGATCCGCGATCGATTACAATAACAATATCATGATATTGTTATTATGATCGATCGCGCAATGGTTAGAG"}, "B2": {"name": "hairpin telomere (hp), OKBA28F (structured_DNA)", "DNA": "ATCCCTCTAACCATTGCGCGATCGATCATAATAACAATATCATGATATTGTTATTATGATCGATCGCGCAATGGTTAGAGG"}}, "key": {"[1]": {"molecular_target": "TelA (107–442) N-terminal domain deletion mutant with the E337K mutation (Agrobacterium tumefaciens)"}, "TelA (ΔN)": {"molecular_target": "T1, TelA (ΔN) (Agrobacterium tumefaciens, UniProt Q7CWV1 107-442)", "T1 sequence": "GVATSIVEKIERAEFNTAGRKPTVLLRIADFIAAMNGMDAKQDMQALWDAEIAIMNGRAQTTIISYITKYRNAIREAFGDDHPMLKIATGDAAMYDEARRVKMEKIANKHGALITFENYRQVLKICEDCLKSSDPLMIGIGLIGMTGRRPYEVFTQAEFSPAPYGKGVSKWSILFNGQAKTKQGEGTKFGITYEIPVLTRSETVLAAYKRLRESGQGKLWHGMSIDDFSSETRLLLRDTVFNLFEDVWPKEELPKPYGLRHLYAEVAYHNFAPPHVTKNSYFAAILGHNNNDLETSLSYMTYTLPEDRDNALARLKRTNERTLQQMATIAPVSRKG", "assay": "EMSA; 2 mM Ca2+; EMSA: HEPES pH 7.6, 1 mM DTT, 2 mM CaCl2, 100 ug/mL BSA, 50 mM potassium glutamate, 0.8 ug/mL supercoiled pUC19 competitor, 76 ng/mL heparin sulphate, 2 nM labeled rTel, 0 C", "conditions": "protein: recombinant"}, "TelA (ΔC3; D202AE337K)": {"molecular_target": "T2, TelA (ΔC3; D202AE337K) (Agrobacterium tumefaciens, UniProt Q7CWV1 1-439, D202A;E337K)", "T2 sequence": "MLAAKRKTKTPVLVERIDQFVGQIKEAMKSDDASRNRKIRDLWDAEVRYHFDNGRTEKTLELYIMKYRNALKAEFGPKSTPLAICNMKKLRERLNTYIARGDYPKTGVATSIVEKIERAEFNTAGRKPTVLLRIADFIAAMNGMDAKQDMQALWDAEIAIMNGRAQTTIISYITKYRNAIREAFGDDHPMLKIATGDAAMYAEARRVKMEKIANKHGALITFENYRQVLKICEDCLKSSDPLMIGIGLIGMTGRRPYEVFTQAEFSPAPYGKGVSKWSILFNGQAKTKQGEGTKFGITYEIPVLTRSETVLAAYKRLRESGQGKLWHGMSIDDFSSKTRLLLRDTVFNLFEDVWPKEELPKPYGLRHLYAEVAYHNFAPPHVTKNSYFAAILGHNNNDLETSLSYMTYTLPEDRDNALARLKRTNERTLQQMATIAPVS", "assay": "EMSA; 2 mM Ca2+; EMSA: HEPES pH 7.6, 1 mM DTT, 2 mM CaCl2, 100 ug/mL BSA, 50 mM potassium glutamate, 0.8 ug/mL supercoiled pUC19 competitor, 76 ng/mL heparin sulphate, 2 nM labeled rTel, 0 C", "conditions": "protein: recombinant; chain copies: 2; label: 5'-fluorescein on strand 1; 5' overhang 2 nt at both ends"}, "TelA (ΔNΔC3; D202RE337K)": {"molecular_target": "T3, TelA (ΔNΔC3; D202RE337K) (Agrobacterium tumefaciens, UniProt Q7CWV1 107-439, D202R;E337K)", "T3 sequence": "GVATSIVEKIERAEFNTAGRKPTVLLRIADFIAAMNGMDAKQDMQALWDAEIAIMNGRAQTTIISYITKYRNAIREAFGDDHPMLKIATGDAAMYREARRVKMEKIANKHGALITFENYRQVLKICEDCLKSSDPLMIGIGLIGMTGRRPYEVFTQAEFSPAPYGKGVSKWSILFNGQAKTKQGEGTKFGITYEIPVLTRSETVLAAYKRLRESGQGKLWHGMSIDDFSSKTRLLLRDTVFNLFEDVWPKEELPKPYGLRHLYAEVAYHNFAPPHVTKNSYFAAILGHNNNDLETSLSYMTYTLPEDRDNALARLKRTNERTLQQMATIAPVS", "assay": "EMSA; 2 mM Ca2+; EMSA: HEPES pH 7.6, 1 mM DTT, 2 mM CaCl2, 100 ug/mL BSA, 50 mM potassium glutamate, 0.8 ug/mL supercoiled pUC19 competitor, 76 ng/mL heparin sulphate, 2 nM labeled rTel, 0 C", "conditions": "protein: recombinant; chain copies: 2; label: 5'-fluorescein on strand 1; 5' overhang 2 nt at both ends"}, "[2]": {"molecular_target": "T4, TelA N-terminal domain (N; K9E) (Agrobacterium tumefaciens, UniProt Q7CWV1 1-106, K9E)", "T4 sequence": "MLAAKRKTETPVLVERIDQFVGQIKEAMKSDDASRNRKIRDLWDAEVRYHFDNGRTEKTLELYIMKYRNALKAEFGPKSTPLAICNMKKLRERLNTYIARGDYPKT", "assay": "EMSA; 2 mM Ca2+; EMSA: HEPES pH 7.6, 1 mM DTT, 2 mM CaCl2, 100 ug/mL BSA, 50 mM potassium glutamate, 0.8 ug/mL supercoiled pUC19 competitor, 76 ng/mL heparin sulphate, 2 nM labeled rTel, 0 C", "conditions": "protein: recombinant; label: 5'-fluorescein on strand 1; 5' overhang 2 nt at both ends"}, "TelA wild type": {"molecular_target": "T5, TelA wild type (Agrobacterium tumefaciens, UniProt Q7CWV1 1-442)", "T5 sequence": "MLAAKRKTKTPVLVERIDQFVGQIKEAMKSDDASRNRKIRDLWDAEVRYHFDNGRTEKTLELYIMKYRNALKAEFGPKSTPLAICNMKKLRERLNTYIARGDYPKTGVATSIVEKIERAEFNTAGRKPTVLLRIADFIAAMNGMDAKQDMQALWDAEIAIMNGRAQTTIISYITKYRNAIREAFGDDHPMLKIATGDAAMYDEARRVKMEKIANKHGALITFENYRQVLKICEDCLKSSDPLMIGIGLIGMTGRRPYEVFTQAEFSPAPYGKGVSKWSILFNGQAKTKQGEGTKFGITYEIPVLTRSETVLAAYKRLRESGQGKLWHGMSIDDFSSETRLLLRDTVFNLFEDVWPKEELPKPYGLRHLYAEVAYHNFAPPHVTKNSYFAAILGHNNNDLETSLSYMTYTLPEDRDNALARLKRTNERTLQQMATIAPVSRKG", "assay": "EMSA; 2 mM Ca2+; c1 and c2 complexes; EMSA: HEPES pH 7.6, 1 mM DTT, 2 mM CaCl2, 100 ug/mL BSA, 50 mM potassium glutamate, 0.8 ug/mL supercoiled pUC19 competitor, 76 ng/mL heparin sulphate, 2 nM labeled rTel, 0 C", "conditions": "protein: recombinant; chain copies: 2; label: 5'-fluorescein on strand 1; 5' overhang 2 nt at both ends"}, "[3]": {"molecular_target": "T6, TelA N-terminal domain (N) (Agrobacterium tumefaciens, UniProt Q7CWV1 1-106)", "T6 sequence": "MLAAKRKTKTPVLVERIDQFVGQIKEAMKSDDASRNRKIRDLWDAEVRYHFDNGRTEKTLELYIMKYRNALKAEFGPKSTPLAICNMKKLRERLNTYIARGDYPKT", "assay": "EMSA; 2 mM Ca2+; laddering bandshift; EMSA: HEPES pH 7.6, 1 mM DTT, 2 mM CaCl2, 100 ug/mL BSA, 50 mM potassium glutamate, 0.8 ug/mL supercoiled pUC19 competitor, 76 ng/mL heparin sulphate, 2 nM labeled rTel, 0 C", "conditions": "protein: recombinant; label: 5'-fluorescein on strand 1; 5' overhang 2 nt at both ends"}}}
{"molecule": "TelA (1–106) N-terminal domain with the K9E mutation (from UniProt A0A822V2W1 1-106) (domain or fragment)", "values": [{"measurement": "fold reduction of the initial rate of telomere resolution by (ΔN; E337K) at 0°C when (N; K9E) is added in trans", "setting": "[1]", "result": 10, "unit": "fold"}]}
{"molecule": "TelA (1–106), N-terminal domain of the Agrobacterium tumefaciens telomere resolvase TelA (from UniProt A0A822V2W1 1-106) (domain or fragment)", "values": [{"measurement": "fold reduction of the initial rate of telomere resolution by (ΔN; E337K) at 0°C when the N-terminal domain (N, 800 nM, about 10-fold molar excess) is added in trans", "setting": "[1]", "result": 22, "unit": "fold"}]}
{"molecule": "B1", "values": [{"measurement": "binding result", "setting": "TelA (ΔN); chain copies: 2, label: 5'-fluorescein on strand 1, 5' overhang 2 nt at both ends", "result": "no binding"}, {"measurement": "binding result", "setting": "TelA (ΔC3; D202AE337K)", "result": "binds"}, {"measurement": "binding result", "setting": "TelA (ΔNΔC3; D202RE337K)", "result": "binds"}, {"measurement": "binding result", "setting": "[2]", "result": "no binding"}, {"measurement": "binding result", "setting": "TelA wild type", "result": "binds"}, {"measurement": "binding result", "setting": "[3]", "result": "binds"}]}
{"molecule": "B2", "values": [{"measurement": "binding result", "setting": "TelA (ΔN); label: 5'-fluorescein, hairpin, 5' overhang 3 nt", "result": "no binding"}]}
